Values belong to the substance of their own block, whether it stands above or below them.
How the values were obtained:
Assay in all cases: SEC; Superdex 200 Increase 10/300 GL, 4°C; mFAS samples incubated at 37°C for 1 h beforehand to promote dimerization; oligomeric state read from the elution volume
[1] = target: mFASΔTE (metazoan fatty acid synthase lacking the TE domain) (mouse) (UniProt P19096)
[2] = target: mFASΔTE S2014A/Y2027F (mouse) (UniProt P19096)
mFASΔTE Y2027F (mouse) = mFASΔTE Y2027F (mouse) (UniProt P19096)
mFASΔTE G2054F (mouse) = mFASΔTE G2054F (mouse) (UniProt P19096)
mFASΔTE T2076F (mouse) = mFASΔTE T2076F (mouse) (UniProt P19096)
mFASΔTE S2014A (mouse) = mFASΔTE S2014A (mouse) (UniProt P19096)

stoichiometry N [1]: 2
Substance: mFASΔTE (metazoan fatty acid synthase lacking the TE domain) (from UniProt P19096 1-2504) (enzyme)

stoichiometry N [2]: 2
Substance: mFASΔTE S2014A/Y2027F (from UniProt P19096 1-2504) (enzyme)

Second part, the substance before the results:

Substance: mFASΔTE Y2027F (from UniProt P19096 1-2504) (enzyme)
stoichiometry N (mFASΔTE Y2027F (mouse)): 2

Substance: mFASΔTE G2054F (from UniProt P19096 1-2504) (enzyme)
stoichiometry N (mFASΔTE G2054F (mouse)): 2

Substance: mFASΔTE T2076F (from UniProt P19096 1-2504) (enzyme)
stoichiometry N (mFASΔTE T2076F (mouse)): 2

Substance: mFASΔTE S2014A (from UniProt P19096 1-2504) (enzyme)
stoichiometry N (mFASΔTE S2014A (mouse)): 2

Source: article PMC12856111
